# Experiment: yeast display, Sf9 membrane polyspecificity reagent, FACS + sequencing; frameworks hold sequencing errors
# Outline: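 Genes from sorted yeast were amplified by colony PCR, read by MiSeq 2 × 250 sequencing and filtered on CDR length. These cells carried a synthetic nanobody library in Saccharomyces cerevisiae BJ5465 and were sorted by FACS into low and high (top ~1%) gates on anti-HA and streptavidin fluorescence. Polyreactivity is labelled according to the gate of origin.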
row,Sequence,polyreactivity (PSR sort gate)
1,QVQLVESGGGLVQAGGSLRLSCAASGFTIRRYAMGWYRQAPGKERALVAAITTGGSTYYADSVKGRFTISRDNAKNTVYLQMYSLKPEDTAVYYCATDTYPYPLYYSPGAYGYWGQGTQVTVSS,high polyreactivity
2,QVQLVESGGGLVQAGGSLRLSCAASGFTIRRYAMGWYRQAPGKESELVAAITTGGSTYYADSVKGRFTISRDNAKNTVYLQMNSLKPEDTAVYYCATDTYPYPLYYSPGAYGYWGQGTQVTVSS,high polyreactivity
3,QVQLVESGGGLVQAGGSLRLSCAASGFTIRSYVMGWYRQAPGKEREFVAAISYRGGGTNYADSVKGRFTISRDNAKNTVYLQMNSLKPEDSAVYYCNAYIVSNEGDYWGQGTQVTVSS,high polyreactivity
4,QVQLVESGGGLVQAGGSLRLSCAASGFTIRSYVMGWYRQAPGKERELVAAIRRSGGSTYYADSVKGRFTNSRDNAKNTVYLQMNSLKPEDTAVYYCNAPHHRYDWGQGTQVTVSS,high polyreactivity
5,QVQLVESGGGLVQAGGSLRLSCAASGFTISPYAMGWYRQAPGKERELVAVISKSSTRTYYADSVKGRFTISRDTAKNTVYLQMNSLKPEDTAVYYCNAGWNFVSGYYYWGQGTQVTVSS,high polyreactivity
6,QVQLVESGGGLVQAGGSLRLSCAASGFTISSYVMGWYRQAAGKEREVVAAISSSGARTYYADSVKGRFTISRDNAKNTVYLQMNSLKPEDTAVYYCAADNSPRPYDYWGQGTQVTVSS,high polyreactivity
7,QVQLVESGGGLVQAGGSLRLSCAASGFTITKYAMGWYRQAPGKERELVAAISSSGYSTYYADSVKGRFTISRDNAKNTVYFQMNSLKPEDTAVYYCAARGYYSSGVDYCGQGTQVTVSS,high polyreactivity
8,QVQLVESGGGLVQAGGSLRLSCAASGFTIVPYAMGWYRQAPGKERELVAAISRRGSRTYYADSVKGRFTISRDNAKNTVYLQMNSLKPEDTAVYYCAAKLSAVKAAYDYWGQGTQVTVSS,high polyreactivity
9,QVQLVESGGGLVQAGGSLRLSCAASGFTIVYYSMGWYRQAPGKERELVATISSGGGTNYADSVKGRFTISRDNAKNTVYLQMNSLTPEDTAVYYCAAEYYTGYFKYDYWGQGTQVTVSS,high polyreactivity
10,QVQLVESGGGLVQAGGSLRLSCAASGFTIWQNAMGWYRQAPGKERELVAGIRLSGGSTYADSVKGRFTISRDNAKNTVYLQMNSLKPEDTAVYYCAARIAGYYRYRYSYGYWGQGTQVTVSS,high polyreactivity
11,QVQLVESGGGLVQAGGSLRLSCAASGFTIWRNDMGWYRQAPGKERELVAVISTAGRTYYADSVKGRFTISRDNAKITVYLQMNSLKPEDTAVYYCAKRSYSKDQPRYGYWGQGTQVTVSS,low polyreactivity
12,QVQLVESGGGLVQAGGSLRLSCAASGFTIYFKAMGWYRQAPGKERELVAAISFSGGGTYYADSVKGRFTISRDNAKNTFYLQMNSLKPEDTAVYYCAADWYDWVSTYDYWGQGTQVTVSS,low polyreactivity
13,QVQLVESGGGLVQAGGSLRLSCAASGFTKAYAMGWSRQAPGKERELVAVISDRAGSTYYADSVKGRFTISRDNPKNTVYLQMNSLKPEDTAVYYCAADGIGYSYHGRPYIYEYWGQGTQVTVSS,low polyreactivity
14,QVQLVESGGGLVQAGGSLRLSCAASGFTLDDYAMGWYRQAPGKEREWVAAITSGGTYADSVKGRFTISRDNAKNTVYLQMNSLKPEDTAVYYCNAGNNVVVDYDYWGQGTQVTVSS,low polyreactivity
15,QVQLVESGGGLVQAGGSLRLSCAASGFTLDWYVMGWYRQAPGKEREFVASIRYSGGSTYYADSVKGRFTISRDNAKNTVYLQMNRLKTEDTAVYYCAARTVTLSYLYYYWGQGTQVTVSS,high polyreactivity
16,QVQLVESGGGLVQAGGSLRLSCAASGFTLEYYAMGWYRQAPGKERELVASISSGGRTNYADSVKGRFTISRDNAKNTVYLQMNSLKPEDTAVYYCAAEYRSWGRYRYRFNYWGEGTQVTVSS,high polyreactivity

row,Sequence,polyreactivity (PSR sort gate)
1,QVQLVESGGGLVQAGGSLRLSCAASGFTLFGYAMGWYRPAPGKERELVAAITSGDGRTYYADSVKGRFTISRDNAKNTVYLQMNSLKPEDTAVYYCAATRYSSYYYVRHDHWGQGTQVTVSS,low polyreactivity
2,QVQLVESGGGLVQAGGSLRLSCAASGFTLGGNALGWYRQAPGKERELVAAITFSGGSTYYADSVKGRFTISRDNAKNIVYLQMNSLKPVDTAVYYCAKTHGYYYYYTYDYWGQGTQVTVSS,low polyreactivity
3,QVQLVESGGGLVQAGGSLRLSCAASGFTLGRYAMGWYRQAPGKEREFVAAISRGGGSTNYADSVKGRFTISRDNAKNTVYLQMNSLKPEDTAVYYCAADDHTSGYGYWGQGTQVTVSS,high polyreactivity
4,QVQLVESGGGLVQAGGSLRLSCAASGFTLGSNVMGWYRQAPGKERELVAGISQSGGRTFYADSVKGRFTISRDNSKNTVYLQMNSLKPEDTAVYYCAARRYAVEGSKNYYWGQGTQVTVTS,low polyreactivity
5,QVQLVESGGGLVQAGGSLRLSCAASGFTLGSYAMGWYRQAPGKDRELVARISSDGSTNYADSVKGRFTISRDNAKNTVYLQMNSLKPEDTAVYYCAADFTYYDSPYRDYNYESWGQGAQVTVSS,low polyreactivity
6,QVQLVESGGGLVQAGGSLRLSCAASGFTLGVNAMGWYRQAPGKERELVAAISRGGSTDYADSVKGRFTISRDNAKNTVDLQMYSLKPEDTAVYYCAAETYAWYRGWEGYWGPGTQVTVSS,high polyreactivity
7,QVQLVESGGGLVQAGGSLRLSCAASGFTLGYNAMGWYRQAPGKERELVAGITWSGGSTSYADSVKGRFTISRDNAKNTVYLQMYSLKPADTAVYYCAKLRRYSGWLPWPYAYDYWGQGTQVTVSS,high polyreactivity
8,QVQLVESGGGLVQAGGSLRLSCAASGFTLHVYAMGWYRQAPGKERELVAAISTGGNTNFADSVKGRFTISRDNAKNTVYLQMNSLKPEDTAVYYCNTLGRYSSYYWGLGTQVTVSS,high polyreactivity
9,QVQLVESGGGLVQAGGSLRLSCAASGFTLIADDMGGYRQAPGKERELVAGISSGDSTDYADSVKGRFTISRDNAKNTVYVQMNSLTPEDTAVYYCAATWYGDYSRYDFYYWGQGTQVTVSS,low polyreactivity
10,QVQLVESGGGLVQAGGSLRLSCAASGFTLKSYAMGWYRQAPGKERELVASISRRGGSTYYADSVKGRFTISRDNAKNTVYLQMNSLKPEDTAVYYCAADRSGSSDGVYWGQGTQVTLSS,high polyreactivity
11,QVQLVESGGGLVQAGGSLRLSCAASGFTLKYYAMGWYRQAPGKERELVAAISSGDSTNYADSVKGRFTISRDNAKNTVYLQMNSLKPEDTAVYYCNTRYPSSSYYYWGQGTQVTVSS,low polyreactivity
12,QVQLVESGGGLVQAGGSLRLSCAASGFTLKYYAMGWYRQAPGKERELVAAITSSGVSTYYADSVKGRFTISRDNAKNTVYLQMNSLKPEDTAVYYCAALYWYSRSSWDYDYWGQGTQVTVSS,high polyreactivity
13,QVQLVESGGGLVQAGGSLRLSCAASGFTLLKYDMGWYRQAPGKERELVAAITRRGGRTSYADSVKGRFTISRDNAKNTVYLQMNSLKPEDTAVYYCNADGDTGRFDYWGQGTQVSVSS,high polyreactivity
14,QVQLVESGGGLVQAGGSLRLSCAASGFTLLPNAMGWYRQAPGKERELVAAITASGGRTYYADSVKGRFTISRDNAKNTVYLQMNSLKPEDSAVYYCNAGVYYYYHYTRMDYWGQGTQVTVSS,low polyreactivity
15,QVQLVESGGGLVQAGGSLRLSCAASGFTLNGYAMGWYRQAPGKERELVAAISSSGGRTYYADSVKGRFTISRDNAKNTVYLQMNSLKPEDTAVYYCAAVVYYEDGYWGQGTQVTVSS,low polyreactivity
16,QVQLVESGGGLVQAGGSLRLSCAASGFTLPANGMGWYRQAPGKERELVAAISFIAGSTYYADSVKGRFTISRDNAKNTVYLQMNSLKPEDTAVYYCATQFPPSTIYYYWGQGTQVTVSS,low polyreactivity

# Reference: the nanobody polyreactivity screen of Harvey et al. (2022)
